Here are results for 2 molecules from patent US11400156B2, “Methods of preventing secondary infections” (Yeda Research and Development Co. Ltd., priority 2015, dated 2022).

Assay [1] deals with PR8 influenza virus followed by S. pneumoniae. Format: in vivo, C57BL/6J mice.
Assay [2] relates to S. pneumoniae. The class given is in vivo, C57BL/6J mice.
Assay [3] concerns influenza A/Puerto Rico/8/34 (A/PR/8/34, H1N1). Format: in vivo, C57BL/6J mice.
Assay [4] has the same test system. The class given is in vivo, C57BL/6J mice. This is another data set of the same source.
Assay [5] concerns collagenolytic activity in lung section. Further details: species or system C57BL/6J mice. Particulars: mouse, in vivo.
The test system of assay [6] is influenza A/Puerto Rico/8/34 (A/PR/8/34, H1N1). The class given is in vivo, C57BL/6J mice. This is another data set of the same source.
The target in assay [7] is MT1-MMP (Homo sapiens, UniProt P50281). Particulars: cited from earlier work.
Setting [8] is: influenza-infected mice, versus control treated.
[9] abbreviates: sub-lethal PR8 influenza, 74 hours post infection.

Read-outs that look alike come from different tables or passages of the source.

As to `CCOC(=O)C1=C[C@@H](OC(CC)CC)[C@H](NC(C)=O)[C@@H](N)C1` [Tamiflu, Oseltamivir phosphate, reference compound], in assay [1] (mouse, in vivo), the “alveolar and bronchial structures / collateral damage in lung ECM (AirSEM)” value is listed as “ineffective in preventing collateral damage in the lung ECM”; the “survival rates and clinical scores, preventive treatment (comparison in words)” value was “same survival rates and clinical scores as the group that received anti-MT1-MMP”; the “survival, therapeutic treatment” value is on record as 20%. Also, the “bacteremia and dissemination of S. pneumoniae from lungs to systemic circulation and spleen” value (“bacteremia and dissemination” for short) in assay [2] (mouse, in vivo) was “developed sepsis”. Further, the “tissue integrity, ECM morphology and collagen structure (AirSEM)” value in assay [3] (mouse, in vivo) was “same destructive lung tissue and ECM phenotypes were observed”. Moreover, in assay [4] (versus vehicle-treated mice), the “reduction of viral burden in whole-lung homogenates (qPCR)” value is 10-100 fold.

B1: LEM 2/15: selective allosteric inhibitory antibody of MT1-MMP from LEM-2/15 hybridoma cells; Fab fragment given to mice at 3 mg/kg (antibody, V domains shown)
VL: LVIDVLMTQTPLSLPVGLGDQASISCRSSQSIVHSNGNTYLEWYLQKPGQSPKLLIYKVSNRFSGVPDRFSGSGSGTDFTLKISRVEAEDLGVYYCFQGSHAPYTFGGGTKLEIKR
VH: EVKLVESGGGLVKPGGSLKLSCAASGFIFSNYAMSWVRQTPEKRLEWVATISGGGRNIYSLDSVKGRFTFFRDNARNTLYLQMSSLRSEDTAMYFCSRENYGSSFTYWGQGTLVTVS
modifications: Fab fragment; LEM-2/15.8 antibody VH amino acid sequence; LEM-2/15.8 antibody VL amino acid sequence
In the case of B1, in assay [5], the “proteolysis by functional in situ zymography” value was “significant attenuation of proteolysis”. Also, in assay [6] (74 hours post-infection, versus control antibody), the “recruitment of macrophages and neutrophils to infected lungs (FACS)” value is “no detectable differences”. Besides, in assay [6] (setting [8]), the “IL-1β level in BALF” value was “strongly induced in influenza-infected mice regardless of MT1-MMP activity” and the “TNF-α level in BALF” value is “strongly induced in influenza-infected mice regardless of MT1-MMP activity”. The “survival rates and clinical scores, preventive treatment (comparison in words)” value in assay [1] (co-infection, treatment one day before infection (-1)) is “equally effective in preventing co-infection induced mortality”. Besides, in assay [1] (co-infection, treatment one day post infection (+1)), the “survival, therapeutic treatment” value is 70%. For the same molecule, the “bacteremia and dissemination” value in assay [2] (co-infected mice, 2 days post bacterial infection, listed as MT1-MMP inhibitory antibody) is “reduced spread of bacteria”. In addition, the “bacteremia and dissemination” value in assay [2] (co-infected mice, 2 days post bacterial infection, listed as anti-MT1-MMP inhibitor) is listed as “did not develop systemic bacterial dissemination”. Also, the “concentration at which the inhibitory antibody of MT1-MMP is effective” value in assay [7] (inhibits collagenase activity of MT1-MMP expressed on the cell surface) is “nano-molar concentrations”. Moreover, in assay [7] (selectivity of inhibition), the “interference with proMMP-2 activation and enzyme dimerization on the cell surface” value is reported as “without significantly interfering”. Also, in assay [3] (setting [9]), the “collagen type I fibers (two-photon second harmonic generation, 3D analysis)” value was “more abundant”; the “laminin degradation in infected lungs (immunostaining)” value is reported as “protected laminin”; the “tissue integrity, ECM morphology and collagen structure (AirSEM)” value was “protected tissue integrity”. In addition, the “effect on viral burden, early phases of infection” value in assay [4] (24 hours post infection) is “minimal effect”. Besides, the “effect on viral burden, later stages” value in assay [4] (later stages of infection) was “no effect was discernible”.
